Data published in paper PMC3752404 (Molecular cell, 2011).
Residue numbers refer to the chain shown, from its start. In names and notes the source's numbering stands. Several values for one entry are separate records, joined by “and”; a condition that tells them apart may be missing. Identical values can stand only once. Blank lines part the entries; values can stand above or below the molecule they belong to.

Assays:
[1] = target: Swi6 chromoshadow domain (WT CSD) (S. pombe)
[2] = target: Swi6 chromoshadow domain (WT CSD) (S. pombe); experiment: ITC
[3] = target: Swi6 (wild type, tagged: N-terminal 6xHis and C-terminal FLAG) (S. pombe) (UniProt P40381); experiment: equilibrium competition with a fluorescently labeled DNA
[4] = target: H3Kc9me3 12N(L15) nucleosome array; experiment: native gel or EMSA
[5] = target: MLA methylated (H3Kc9me3) mononucleosome on the 147 bp 601 sequence; experiment: AUC
[6] = target: H3K9 2N(L15) dinucleosome; experiment: native gel or EMSA
[7] = target: H3K9 2N(L47) dinucleosome; experiment: native gel or EMSA
[8] = target: H3Kc9me3 12N(L47) nucleosome array; experiment: native gel or EMSA
[9] = target: H3Kc9me3 2N(L15) dinucleosome; experiment: native gel or EMSA
[10] = target: H3Kc9me3 2N(L47) dinucleosome; experiment: native gel or EMSA
[11] = target: MLA methylated (H3Kc9me3) mononucleosome on the 147 bp 601 sequence; experiment: native gel or EMSA
H3K9me3 tail peptide = experiment: fluorescence polarisation
SEC-MALS = target: the molecule itself; experiment: SEC-MALS
SEC-MALS + cross-linking = target: the molecule itself; experiment: SEC-MALS + cross-linking
cross-linking = target: the molecule itself; experiment: cross-linking
SEC = target: the molecule itself; experiment: SEC

stoichiometry N [1]: 2
Kd [2]: < 17 nM
Molecule: Swi6 chromoshadow domain (WT CSD) (domain or fragment)

fold increase of specificity compared to WT Swi6 [4]: 7 fold
fold specificity over the H3K9 12N(L15) array [4]: 130 fold
Molecule: Swi6 V82E-Y131W (from UniProt P40381 1-328) (natural protein)

stoichiometry N [5]: 4
K1/2 [6]: 156 nM
K1/2 [7]: 32 nM
fold specificity over the H3K9 12N(L15) array (ratio of K1/2) [4]: 25 fold
fold specificity over the H3K9 12N(L47) array (ratio of K1/2) [8]: 5.4 fold
K1/2 [9]: 62 nM
K1/2 [10]: 12 nM
fold preference over H3K9 nucleosomes (ratio of K1/2) [11]: 5 fold
Molecule: Swi6 (wild type, tagged: N-terminal 6xHis and C-terminal FLAG) (from UniProt P40381 1-328) (natural protein)

fold increase of binding (H3K9me3 tail peptide): 3 fold
B1: Swi6 V82E (natural protein, S. pombe, UniProt P40381 1-328, looked up)
chain: MKKGGVRSYRRSSTSKRSVIDDDSEPELPSMTKEAIASHKADSGSSDNEVESDHESKSSSKKLKENAKEEEGGEEEEEDEYEVEKVLKHRMARKGGGYEYLLKWEGYDDPSDNTWSSEADCSGCKQLIEAYWNEHGGRPEPSKRKRTARPKKPEAKEPSPKSRKTDEDKHDKDSNEKIEDVNEKTIKFADKSQEEFNENGPPSGQPNGHIESDNESKSPSQKESNESEDIQIAETPSNVTPKKKPSPEVPKLPDNRELTVKQVENYDSWEDLVSSIDTIERKDDGTLEIYLTWKNGAISHHPSTITNKKCPQKMLQFYESHLTFRENE
binding result (SEC-MALS): binds

The next lines start with the molecule.

Molecule: MLA methylated (H3Kc9me3) mononucleosome on the 147 bp 601 sequence (complex)
fold specificity over H3K9 nucleosomes [3]: 5 fold

Molecule: Swi6 (wild type, untagged) (from UniProt P40381 1-328) (natural protein)
fold increase of affinity on removing the tags (nucleosomes and arrays): 2.5 fold

Molecule: Swi6 L315D (from UniProt P40381 1-328) (natural protein)
stoichiometry N [5]: 2
fold discrimination between methylated and unmethylated arrays [4]: 2 to 3 fold

B2: Swi6 (wild type, tagged: N-terminal 6xHis and C-terminal FLAG) (natural protein, S. pombe, UniProt P40381 1-328, looked up)
chain: B1 chain with E82V
stoichiometry N (SEC-MALS + cross-linking): 8
stoichiometry N (cross-linking): 2 and > 2

B3: Swi6 Y131W (natural protein, S. pombe, UniProt P40381 1-328, looked up)
chain: B1 chain with E82V, Y131W
fold tetramer formation over WT (SEC-MALS): ~1.6 fold

B4: Swi6 V82E-Y131W (natural protein, S. pombe, UniProt P40381 1-328, looked up)
chain: B1 chain with Y131W
fold tetramer formation over WT (SEC-MALS): ~3.5 fold
stoichiometry N (SEC-MALS): 4 and 8

B5: Swi6 chromodomain (CD, aa 81-137) (domain or fragment, S. pombe, UniProt P40381 81-137, looked up)
chain: YVVEKVLKHRMARKGGGYEYLLKWEGYDDPSDNTWSSEADCSGCKQLIEAYWNEHGG
stoichiometry N (SEC): 2
